Data set [1] has as its target chloroplastic ribosomal protein L10 from S. oleracea (S. oleracea (spinach)). In words: native MS; chloroplastic 70S ribosomes introduced into a QE-UHMR mass spectrometer; intact stalk complexes released by in-source trapping activation and their mass measured; quadrupole isolation and HCD fragmentation ejected a single L12 (pseudo-MS3).
Data set [2] concerns the molecule itself. The description is as above.

B1: chloroplastic ribosomal protein L12 from S. oleracea (natural protein, S. oleracea (spinach), UniProt P02398 57-189, looked up)
chain: AVEAPEKIEQLGTQLSGLTLEEARVLVDWLQDKLGVSAASFAPAAAVAAPGAPADAAPAVEEKTEFDVSIDEVPSNARISVIKAVRALTSLGLKEAKELIEGLPKKLKEGVSKDDAEDAKKQLEDAGAKVSIV
notes: 50S ribosomal protein L12, chloroplastic, Spinacia oleracea; Six copies in each stalk complex; also called L7/L12; source: endogenous, in chloroplastic 70S ribosomes purified from spinach leaves (sucrose cushion, sucrose gradient)
Usually stoichiometry N stands for the number of molecules, sites or subunits per partner or assembly. B1: the stoichiometry N in data set [1] is 6 L12 per L10. Moreover, in data set [2], the binding result was “binds”.

The values above are taken from paper PMC6021402, “Dissecting ribosomal particles throughout the kingdoms of life using advanced hybrid mass spectrometry methods” (Nature Communications, 2018).
